This is an account of results in the RNAGym collection of RNA variant scans (doi:10.7554/elife.80360).

First the molecules themselves.
B1: Twister Ribozyme (parent)
chain: AACACUGCCAAUGCCGGUCCCAAGCCCGGAUAAAAGUGGAGGGGGCGG

In this data set the parent is B1. As to the kind of experiment: self-cleavage, relative activity (ratio to wild type); higher = more cleavage; co-transcriptional.
As for AACACUGCCCAUGCGGGUCCCAAGCCCGGAUAAAAGUGGAGGGGGCGG [A10C C15G], the self-cleavage amounted to 0.0331.

AACACUGCCCAUGCUGGUCCCAAGCCCGGAUAAAAGUGGAGGGGGCGG [A10C C15U]: the self-cleavage is 0.942.

In the case of AACACUGCCCAUGCAGGUCCCAAGCCCGGAUAAAAGUGGAGGGGGCGG [A10C C15A], the self-cleavage came to 0.493.

As to AACACUGCCCAUGCCGGUCACAAGCCCGGAUAAAAGUGGAGGGGGCGG [A10C C20A], the self-cleavage amounted to 0.199.

As for AACACUGCCCAUGCCGGUCCCAAGCCCGGAAAAAAGUGGAGGGGGCGG [A10C U31A], the self-cleavage was 0.776.

With AACACUGCCCAUGCCGGUCCCAAGCCCGGACAAAAGUGGAGGGGGCGG [A10C U31C], the self-cleavage came out at 0.834.

In the case of AACACUGCCGAUGACGGUCCCAAGCCCGGAUAAAAGUGGAGGGGGCGG [A10G C14A], the self-cleavage was determined as 0.975.

With AACACUGCCGAUGCCGGUCCCAAGCCCGGAUAAAAGUGGAGAGGGCGG [A10G G42A], the self-cleavage came out at 0.509.

For the variant AACACUGCCGAUGCCGGUCCUAAGCCCGGAUAAAAGUGGAGGGGGCGG [A10G C21U], the self-cleavage amounted to 0.162.

AACACUGCCCAUGCCGGUCCCAAGCCCGUAUAAAAGUGGAGGGGGCGG [A10C G29U]: the self-cleavage worked out at 0.912.

For AACACUGCCCAUGCCGGUCCCAAGCCCGCAUAAAAGUGGAGGGGGCGG [A10C G29C], the self-cleavage worked out at 0.845.

Consider AACACUGCCCAUGCCGGUCCCAAGCCCGAAUAAAAGUGGAGGGGGCGG [A10C G29A], for which the self-cleavage stood at 0.86.

On to AACACUGCCCAUGCCGGUCCCAAGCCCGGAUAAAAGGGGAGGGGGCGG [A10C U37G], for which the self-cleavage was 0.692.

For the variant AACACUGCCCAUGCCGGUCCCAAGCCCGGAUAAAAGAGGAGGGGGCGG [A10C U37A], the self-cleavage was 0.881.

As to AACACUGCCCAUGCCGGUCCCAAGCCCGGAUAUAAGUGGAGGGGGCGG [A10C A33U], the self-cleavage amounted to 1.08.

With AACACUGCCCAUGCCGGUCCCAAGCCCGGAUAGAAGUGGAGGGGGCGG [A10C A33G], the self-cleavage was found to be 1.04.

For AACACUGCCGAUGCCGGUCCCAAGCCCGGAUAAAAGUGUAGGGGGCGG [A10G G39U], the self-cleavage came out at 0.287.

With AACACUGCCGAUGCCGGUCCCAAGCCCGGAUAAAAGUGCAGGGGGCGG [A10G G39C], the self-cleavage is 0.119.

AACACUGCCGAUGCCGGUCCCAAGCCCGGAUAAAAGUGGAGGUGGCGG [A10G G43U]: the self-cleavage worked out at 0.576.

With AACACUGCCCAAGCCGGUCCCAAGCCCGGAUAAAAGUGGAGGGGGCGG [A10C U12A], the self-cleavage stood at 1.24.

Regarding AACACUGCCCACGCCGGUCCCAAGCCCGGAUAAAAGUGGAGGGGGCGG [A10C U12C], the self-cleavage worked out at 0.929.

Take AACACUGCCGAUGCCGGUCCCAAGCCCGGAAAAAAGUGGAGGGGGCGG [A10G U31A]: the self-cleavage came to 0.696.

With AACACUGCCGAUGCCGGUCCCAAGCCCGGAGAAAAGUGGAGGGGGCGG [A10G U31G], the self-cleavage was 0.994.

Regarding AACACUGCCGAUGCCGGUCCCAAGCCCGGACAAAAGUGGAGGGGGCGG [A10G U31C], the self-cleavage stood at 0.817.

AACACUGCCCAUGCCGGUCCCAAGCCUGGAUAAAAGUGGAGGGGGCGG [A10C C27U]: the self-cleavage amounted to 0.932.

As to AACACUGCCCAUGCCGGUCCCAGGCCCGGAUAAAAGUGGAGGGGGCGG [A10C A23G], the self-cleavage amounted to 0.453.

In the case of AACACUGCCCAUGCCGGUCCCAAGCCCGGAUAAAAGUCGAGGGGGCGG [A10C G38C], the self-cleavage worked out at 0.813.

Consider AACACUGCCCAUGCCGGUCCCAAGCCCGGAUAAAAGUUGAGGGGGCGG [A10C G38U], for which the self-cleavage was 0.832.

Take AACACUGCCGAUGCCGGUGCCAAGCCCGGAUAAAAGUGGAGGGGGCGG [A10G C19G]: the self-cleavage is 0.677.

On to AACACUGCCGAUGCCGGUCCCAAGCCCGGAUAAAAGUCGAGGGGGCGG [A10G G38C], for which the self-cleavage came out at 0.93.

On to AACACUGCCGAUGCCGGUCCCAAGCCCGGAUAAAAGUUGAGGGGGCGG [A10G G38U], for which the self-cleavage is 0.91.

Regarding AACACUGCCCAUGCCGGUCCCAAGCCCGGAUCAAAGUGGAGGGGGCGG [A10C A32C], the self-cleavage amounted to 0.821.

In the case of AACACUGCCGAUGCCGGUCCCAAGCCCGGAUAUAAGUGGAGGGGGCGG [A10G A33U], the self-cleavage is 0.963.

On to AACACUGCCGAUGCCGGUCCCAAGCCCGGAUACAAGUGGAGGGGGCGG [A10G A33C], for which the self-cleavage was 1.03.

On to AACACUGCCGAUGCCGGUCCCAAGCGCGGAUAAAAGUGGAGGGGGCGG [A10G C26G], for which the self-cleavage is 0.354.

AACACUGCCGAUGCCGGUCCCAAACCCGGAUAAAAGUGGAGGGGGCGG [A10G G24A]: the self-cleavage came out at 0.178.

Regarding AACACUGCCGAUGCCGGCCCCAAGCCCGGAUAAAAGUGGAGGGGGCGG [A10G U18C], the self-cleavage is 0.807.

As to AACACUGCCCAUGCCGGUCCCAAGCCCGGAUAAGAGUGGAGGGGGCGG [A10C A34G], the self-cleavage amounted to 0.88.

As to AACACUGCCCAUGCCGGUCCCAAGCCCGGAUAACAGUGGAGGGGGCGG [A10C A34C], the self-cleavage is 0.283.

Regarding AACACUGCCCAUGCCGGUCCCAAGCCCGGAUAAUAGUGGAGGGGGCGG [A10C A34U], the self-cleavage came to 0.951.

For AACACUGCCGAUGCCGGUCCCAAGCCCGGAUAAAAGUGGAGGGGGCGG [A10G], the self-cleavage turned out to be 1.02.

On to AACACUGCCUAUGCCGGUCCCAAGCCCGGAUAAAAGUGGAGGGGGCGG [A10U], for which the self-cleavage amounted to 0.982.

With AACACUGCCGAUGCCGGUCCCAAGCCCGGAUAAAAGUGGAAGGGGCGG [A10G G41A], the self-cleavage was 0.748.

In the case of AACACUGCCGAUGCCGGUCCCAAGCCCGGAUAAAAGUGGAUGGGGCGG [A10G G41U], the self-cleavage is 0.781.

For AACACUGCCGAUGCCGGUCCCAAGCCCGGAUAAAAGUGGACGGGGCGG [A10G G41C], the self-cleavage was found to be 0.384.

Consider AACACUGCCCAUGCCGGUUCCAAGCCCGGAUAAAAGUGGAGGGGGCGG [A10C C19U], for which the self-cleavage was determined as 0.802.

Turning to AACACUGCCCAUGCCGGUACCAAGCCCGGAUAAAAGUGGAGGGGGCGG [A10C C19A], the self-cleavage turned out to be 0.214.

Consider AACACUGCCCAUGCCGGUCCCAAGCCCGGAUAAAAGUGGAGGGGGCGU [A10C G48U], for which the self-cleavage was determined as 1.01.

As to AACACUGCCCAUGCCGGUCCCAAGCCCGGAUAAAAGUGGAGGGGGCGA [A10C G48A], the self-cleavage worked out at 0.822.

As to AACACUGCCGAUGCCGGUCCCAAGCCAGGAUAAAAGUGGAGGGGGCGG [A10G C27A], the self-cleavage is 0.682.

Take AACACUGCCGAUGCCGGUCCCAAGCCGGGAUAAAAGUGGAGGGGGCGG [A10G C27G]: the self-cleavage worked out at 0.105.

Take AACACUGCCGAAGCCGGUCCCAAGCCCGGAUAAAAGUGGAGGGGGCGG [A10G U12A]: the self-cleavage amounted to 1.03.

For AACACUGCCGAGGCCGGUCCCAAGCCCGGAUAAAAGUGGAGGGGGCGG [A10G U12G], the self-cleavage came out at 1.07.

With AACACUGCCCAUGCCGGUCCCAAGCCCGGAUAAAAGUGGAGGGAGCGG [A10C G44A], the self-cleavage worked out at 0.932.
